Experimental data reported in US20230391860A1 (CANON MEDICAL SYSTEMS, published 2023).

How the values were obtained:
Assay in all cases: ELISA on immobilised peptide, antibody 1 ug/mL
[1] = target: T1, mCRP (121-150) (human)
T1 peptide: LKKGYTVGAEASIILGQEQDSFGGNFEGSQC

[2] = target: T2, mCRP (151-180) (human)
T2 peptide: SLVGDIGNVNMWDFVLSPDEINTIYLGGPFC

[3] = target: T3, mCRP (61-90) (human)
T3 peptide: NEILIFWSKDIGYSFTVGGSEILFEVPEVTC

[4] = target: T4, mCRP (181-206) (human)
T4 peptide: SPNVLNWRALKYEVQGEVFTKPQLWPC

[5] = target: T5, mCRP (31-60) (human)
T5 peptide: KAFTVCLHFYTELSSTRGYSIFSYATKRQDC

[6] = target: T6, mCRP (159) (human)
T6 peptide: SFGGNFEGSQC
Excerpt: (§1) The following materials were used as materials for epitope analysis. [0156] (a) Plate: Immunoplate for ELISA (96 well) manufactured by Nunc [0157] […] (c) Solid-phase buffer: 0.1 M carbonate buffer pH 9.5 (IBL) [0159] (d) Antiserum dilution buffer: 1% BSA, 0.05% Tween-20 (Kanto Chemical Co., Inc.) in PBS [0160] (e) Labeled antibody dilution buffer: 1% BSA, 0.05% Tween-20 in PBS [0161] (f) Washing buffer: 0.05% Tween-20 in 0.1 M PB [0162] (g) Substrate buffer: K₂HPO₄-citrate buffer (pH 5.1) (IBL) [0163] (h) Reaction stop solution: 1 mol/L-H₂SO₄ (Wako Pure Chemical Industries, Ltd.)
(§2) Epitope analysis was performed by the following procedure. [0166] (a) Peptides were immobilized on a plate by standing at 50 ng/well (50 μL/well) for 16 hours at 4° C. […] (b) Solid phase peptides were washed twice with Dulbecco's PBS (D-PBS) (200 μL/well). [0168] (c) Blocking was performed by adding 200 μL of D-PBS containing 0.1% BSA and 0.05% NaN₃ to each well and leaving it at 4° C. overnight. [0169] (d) Each well was washed twice with the washing buffer. [0170] (e) The antibody was diluted to 1 μg/mL with the dilution buffer and the diluted solution was added to each well (50 μL/well) and left at 37° C. for 30 minutes. [0171] (f) Each well was washed four or more times with the washing buffer. [0172] (g) Anti-mouse IgG (γ-specific)-HRP, a labeled antibody, was added to each well (50 μL/well) and left at 37° C. for 30 minutes. [0173] (h) Each well was washed four or more times with the washing buffer. [0174] (i) A chromogenic reaction was started by adding a substrate solution (400 μg/mL) to each well (100 μL/well), and the reaction was allowed to proceed for 15 minutes at room temperature in the dark. [0175] (j) After 15 minutes, the reaction was stopped by addition of 1 mol/L sulfuric acid (100 μL/well), and absorbance (490 nm) was measured.

[7] = target: T7, mCRP (59) (human)
T7 peptide: TELSSTRGYSC
Excerpt: as §1, §2

[8] = target: T8, mCRP (209) (human)
T8 peptide: KYEVQGEVFTKPQLWPC
Excerpt: as §1, §2

[9] = target: T9, mCRP (179) (human)
T9 peptide: MWDFVLSPDEC
Excerpt: as §1, §2

[10] = target: T10, mCRP (199) (human)
T10 peptide: SPNVLNWRALC
Excerpt: as §1, §2

[11] = target: T11, mCRP (49) (human)
T11 peptide: KAFTVCLHFYC
Excerpt: as §1, §2

[12] = target: T12, mCRP (19) (human)
T12 peptide: QTDMSRKAFVC
Excerpt: as §1, §2

[13] = target: T13, mCRP (99) (human)
T13 peptide: EILFEVPEVTC
Excerpt: as §1, §2

[14] = target: T14, mCRP (39) (human)
T14 peptide: SLKAPLTKPLC
Excerpt: as §1, §2

[15] = target: T15, mCRP (29) (human)
T15 peptide: FPKESDTSYVC
Excerpt: as §1, §2

[16] = target: T16, mCRP (89) (human)
T16 peptide: IGYSFTVGGSC
Excerpt: as §1, §2

[17] = target: T17, mCRP (69) (human)
T17 peptide: IFSYATKRQDC
Excerpt: as §1, §2

[18] = target: T18, mCRP (79) (human)
T18 peptide: NEILIFWSKDC
Excerpt: as §1, §2

[19] = target: T19, mCRP (129) (human)
T19 peptide: VDGKPRVRKSC
Excerpt: as §1, §2

[20] = target: T20, mCRP (189) (human)
T20 peptide: INTIYLGGPFC
Excerpt: as §1, §2

[21] = target: T21, mCRP (169) (human)
T21 peptide: SLVGDIGNVNC
Excerpt: as §1, §2

[22] = target: T22, mCRP (109) (human)
T22 peptide: VAPVHICTSWC
Excerpt: as §1, §2

[23] = target: T23, mCRP (149) (human)
T23 peptide: ASIILGQEQDC
Excerpt: as §1, §2

[24] = target: T24, mCRP (139) (human)
T24 peptide: LKKGYTVGAEC
Excerpt: as §1, §2

[25] = target: T25, mCRP (119) (human)
T25 peptide: ESASGIVEFWC
Excerpt: as §1, §2

B1: human denatured CRP-specific antibody produced from hybridoma mCRP-3C (antibody, mouse IgG2b, V domains shown)
VH: QVQLQQSGAELVRPGASVKLSCKALDYTFTDYEMHWVKQTPVHGLEWIGAIHPGRGGTAYNQKFKGKATLTADKSSSTAYMELSSLTSEDSGVYYCTSYHGGYWGQGTTLTVSS
VL: DVVMTQTPLSLPVSLGDQASISCRSSQSLVHSNENTYLLWYLQKPGQSPKLLIYKVSNRFSGVPDRFSGSGSGTDFTLKISRVEAEDLGVYFCSQTTHVPWTFGGGTKLEIKR
notes: Mouse IgG2b, kappa; also called 3C antibody
absorbance (490 nm) [1]: 0.017
absorbance (490 nm) [2]: 0.108
absorbance (490 nm) [3]: 1.98
absorbance (490 nm) [4]: 0.006
absorbance (490 nm) [5]: 0.03
absorbance (490 nm) [6]: 0.002
absorbance (490 nm) [7]: 0.001
absorbance (490 nm) [8]: 0
absorbance (490 nm) [9]: 0.003
absorbance (490 nm) [10]: 0.006
absorbance (490 nm) [11]: 0
absorbance (490 nm) [12]: 0.004
absorbance (490 nm) [13]: 1.58
absorbance (490 nm) [14]: 0.001
absorbance (490 nm) [15]: -0.001
absorbance (490 nm) [16]: 0
absorbance (490 nm) [17]: 0.002
absorbance (490 nm) [18]: 0
absorbance (490 nm) [19]: 0.002
absorbance (490 nm) [20]: 0.007
absorbance (490 nm) [21]: 0.001
absorbance (490 nm) [22]: -0.001
absorbance (490 nm) [23]: 0.001
absorbance (490 nm) [24]: 0.002
absorbance (490 nm) [25]: 0.005
